This passage reports koff results from PMC6982540.

The target of this experiment is His-PTP1B (residues 1–321), reversibly oxidized and phosphorylated on Ser50 (UniProt P18031). Put plainly: SPR.
Sequence of UniProt P18031 (P18031 1-321): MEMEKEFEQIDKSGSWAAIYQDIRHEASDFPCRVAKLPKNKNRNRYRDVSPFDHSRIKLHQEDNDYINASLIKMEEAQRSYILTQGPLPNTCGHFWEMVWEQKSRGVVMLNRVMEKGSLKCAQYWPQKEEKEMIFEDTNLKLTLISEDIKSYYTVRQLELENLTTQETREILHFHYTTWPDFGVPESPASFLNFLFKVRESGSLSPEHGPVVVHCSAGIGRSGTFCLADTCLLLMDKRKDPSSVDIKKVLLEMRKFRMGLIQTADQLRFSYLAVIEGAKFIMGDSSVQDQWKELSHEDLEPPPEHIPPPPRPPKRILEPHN

With “GST-14-3-3-ζ (from UniProt P63104 1-245) (natural protein)”, the koff was determined as 0.00458 s⁻¹.
